“And” between values parts separate entries of the source, which are not always exact repeats. Equal values may be shown once.
How the values were obtained:
[1] = target: T1, full-length MgtE from Thermus thermophilus (Thermus thermophilus HB8 (ATCC 27634 / …, UniProt Q5SMG8)); test: ITC; Fab705 (25 uM) injected into the cell with full-length MgtE (about 2.5 uM monomer); 25°C; 20 mM HEPES pH 7.0, 150 mM NaCl, 0.05% DDM, 0 mM MgCl2; three repeats listed one by one; details: both partners purified
T1 construct: Mg2+ channel MgtE, Thermus thermophilus, full length; homodimer; In DDM micelles for ITC; source: E. coli C41 (DE3), purified (DDM solubilisation, Ni-NTA, HRV3C cleavage, SEC); not shown: His6, N-terminal, cleaved

[2] = target: T2, full-length Thermus thermophilus MgtE (Thermus thermophilus, UniProt Q5SMG8); test: ITC; Fab705 (25 uM) injected into full-length MgtE (about 2.5 uM monomer) in the cell; 25°C; 20 mM HEPES pH 7.0, 150 mM NaCl, 0.05% DDM, 0 mM MgCl2; details: both partners purified
T2 construct: MgtE Mg2+ channel, Thermus thermophilus, full-length gene in a pET28a-derived vector with an N-terminal hexahistidine tag and an HRV3C site; the cryo-EM model holds only residues 271 to 448 (TM domain); Homodimer; also called wild-type MgtE; WT MgtE; source: E. coli C41 (DE3), purified (Ni-NTA, SEC) in DDM; for cryo-EM reconstituted in PMAL-C8 amphipol; not shown: His6, N-terminal, cleaved

[3] = target: the molecule itself; test: cryo-EM structure; full-length MgtE-Fab705 complex in PMAL-C8 amphipol, no Mg2+ or other divalent cations; 3.7 Å, C2 symmetry imposed
[4] = target: the molecule itself; test: cross-linking; disulfide cross-linking with Cu2+ bis-1,10-phenanthroline, 0.5 mg/ml MgtE mutant in 20 mM HEPES pH 7.0, 150 mM NaCl, 0.05% DDM, MgCl2 gradient (0.01 to 30 mM), 4°C, non-reducing SDS-PAGE

B1: Fab705 (Fab, V domains shown)
VH: EVKLQESGVELVKPGASVKISCKASGYSFTGYNMNWVKQSHGKSLEWIGNISPYYGTSIYNQNFKGKATLTVDRSSSTAYMQLNSLTSEDSAVYYCARGESFSNYEGYYAMDYWGQGTSVIVSS
VL: DVLMTQTPLSLPVSLGDQASISCRSSQSLVHSDGNTYLHWYLQKPGQSPKLLIYKVSNRFSGVPDRFSGSGSGTDFTLKISRVEAEDLGVYFCSQSTHVPWTFGGGTKLEIK
notes: heavy chain of Fab YN0705; in the deposited MgtE-Fab structure PDB 6LBH; light chain of Fab YN0705; Fab made by papain digestion of the mouse monoclonal IgG YN0705 raised against MgtE proteoliposomes; also called Fab YN0705; Fab antibody fragment Fab705; source: mouse hybridoma culture supernatant; IgG purified by protein G, digested with papain, Fab isolated by gel filtration and protein A …
In the case of B1, the Kd [1] is reported as 187 nM and 164 nM and the “stoichiometry N” value [1] is reported as 0.89 and 0.9 and 0.83.

B2: Fab antibody fragment Fab705 (Fab, V domains shown)
VH: EVKLQESGVELVKPGASVKISCKASGYSFTGYNMNWVKQSHGKSLEWIGNISPYYGTSIYNQNFKGKATLTVDRSSSTAYMQLNSLTSEDSAVYYCARGESFSNYEGYYAMDYWGQGTSVIVSS
VL: DVLMTQTPLSLPVSLGDQASISCRSSQSLVHSDGNTYLHWYLQKPGQSPKLLIYKVSNRFSGVPDRFSGSGSGTDFTLKISRVEAEDLGVYFCSQSTHVPWTFGGGTKLEIK
notes: heavy chain of the mouse Fab YN0705; light chain of the mouse Fab YN0705; Fab made by papain digestion of the mouse monoclonal IgG YN0705 raised against MgtE proteoliposomes; also called Fab YN0705; YN0705; source: mouse hybridoma culture supernatant; IgG purified by protein G, digested with papain, Fab isolated by gel filtration and protein A chromatography
With B2 the Kd [2] was 216 ± 52.7 nM.

B3: full-length Thermus thermophilus MgtE (natural protein, UniProt Q5SMG8 1-450, looked up)
chain: MEEKLAVSLQEALQEGDTRALREVLEEIHPQDLLALWDELKGEHRYVVLTLLPKAKAAEVLSHLSPEEQAEYLKTLPPWRLREILEELSLDDLADALQAVRKEDPAYFQRLKDLLDPRTRAEVEALARYEEDEAGGLMTPEYVAVREGMTVEEVLRFLRRAAPDAETIYYIYVVDEKGRLKGVLSLRDLIVADPRTRVAEIMNPKVVYVRTDTDQEEVARLMADYDFTVLPVVDEEGRLVGIVTVDDVLDVLEAEATEDIHKLGAVDVPDLVYSEAGPVALWLARVRWLVILILTGMVTSSILQGFESVLEAVTALAFYVPVLLGTGGNTGNQSATLIIRALATRDLDLRDWRRVFLKEMGVGLLLGLTLSFLLVGKVYWDGHPLLLPVVGVSLVLIVFFANLVGAMLPFLLRRLGVDPALVSNPLVATLSDVTGLLIYLSVARLLLEAV
notes: MgtE Mg2+ channel, Thermus thermophilus, full-length gene in a pET28a-derived vector with an N-terminal hexahistidine tag and an HRV3C site; the cryo-EM model holds only residues 271 to 448 (TM domain); Homodimer; also called wild-type MgtE; WT MgtE; source: E. coli C41 (DE3), purified (Ni-NTA, SEC) in DDM; for cryo-EM reconstituted in PMAL-C8 amphipol; not shown: His6, N-terminal, cleaved
With B3 the “stoichiometry N” value [3] was 2.

B4: MgtE double cysteine mutant T336C/L421C (natural protein, Thermus thermophilus, UniProt Q5SMG8 1-450, looked up)
chain: MEEKLAVSLQEALQEGDTRALREVLEEIHPQDLLALWDELKGEHRYVVLTLLPKAKAAEVLSHLSPEEQAEYLKTLPPWRLREILEELSLDDLADALQAVRKEDPAYFQRLKDLLDPRTRAEVEALARYEEDEAGGLMTPEYVAVREGMTVEEVLRFLRRAAPDAETIYYIYVVDEKGRLKGVLSLRDLIVADPRTRVAEIMNPKVVYVRTDTDQEEVARLMADYDFTVLPVVDEEGRLVGIVTVDDVLDVLEAEATEDIHKLGAVDVPDLVYSEAGPVALWLARVRWLVILILTGMVTSSILQGFESVLEAVTALAFYVPVLLGTGGNTGNQSACLIIRALATRDLDLRDWRRVFLKEMGVGLLLGLTLSFLLVGKVYWDGHPLLLPVVGVSLVLIVFFANLVGAMLPFLLRRLGVDPACVSNPLVATLSDVTGLLIYLSVARLLLEAV
notes: MgtE Mg2+ channel, Thermus thermophilus, with two cysteine substitutions; wild-type MgtE has no endogenous cysteine; source: E. coli C41 (DE3), purified as the wild type, with 20 mM DTT added before its removal by SEC; not shown: His6, N-terminal, cleaved
B4: binds [4].

From article PMC8104411, “The structure of MgtE in the absence of magnesium provides new insights into channel gating” (PLoS Biology, 2021)
